The record followed here is patent US20250206836A1 (ONA THERAPEUTICS S L, published 2025).

Where a chain is given by its changes, count along the chain named. Numbers in names are those of the source.

Assay [1] deals with T1, human CD36 (Sino Biological) (human, UniProt P16671 30-439).
T1 construct: Bought protein coated on ELISA plates
The assay is described as follows: ELISA, plates coated with human CD36 (Sino Biological), antibody titrated, OD630nm. On the technique in general: ELISA stands for enzyme-linked immunosorbent assay.
Source text: Binding was first tested using an ELISA assay in which 96-well ELISA plates were coated with human CD36 (Sino Biological) or mouse CD36 protein.

The target in a further assay is human FcRn (human, UniProt P55899 24-297; P61769 21-119). In words: SPR at pH 5.8, antibody immobilized through its light chains, soluble human FcRn.
The target in a further assay is T2, C1q human protein (human, UniProt P02745 23-245; P02746 28-253; P02747 29-245).
T2 construct: also called complement C1q protein
In words: ELISA, plates coated with the antibody, C1q human protein titrated, Mean Absorbance (OD Units).

The next assay addresses T3, Cyno FcγRIIa (Macaca fascicularis, UniProt A0A140HDN0).
T3 construct: soluble receptor protein; bar 8 of each group
T3 sequence (receptor): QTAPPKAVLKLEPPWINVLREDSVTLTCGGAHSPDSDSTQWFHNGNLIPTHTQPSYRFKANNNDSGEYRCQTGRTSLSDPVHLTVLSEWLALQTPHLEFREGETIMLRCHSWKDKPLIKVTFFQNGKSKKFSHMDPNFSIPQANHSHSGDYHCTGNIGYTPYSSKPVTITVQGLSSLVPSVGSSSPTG
In words: SPR, antibody immobilized through its light chains, soluble receptor injected; Mean Relative Response (RU). A general note: In SPR one partner is held on a chip, and binding of the other changes the refractive index at the surface.

The target in a further assay is T4, Human FcγRI (human, UniProt P12314).
T4 construct: soluble receptor protein; bar 10 of each group
The description is as above.

The next assay has as its target T5, Cyno FcγRIIb (Macaca fascicularis, UniProt A0A140HDP4).
T5 construct: soluble receptor protein; bar 9 of each group
T5 sequence (receptor): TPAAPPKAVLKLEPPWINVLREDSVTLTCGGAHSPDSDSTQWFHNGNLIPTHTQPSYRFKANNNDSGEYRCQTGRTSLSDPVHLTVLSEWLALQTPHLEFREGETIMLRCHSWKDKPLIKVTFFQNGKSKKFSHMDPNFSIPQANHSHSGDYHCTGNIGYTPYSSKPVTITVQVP
The description is as above.

In the next assay the target is T6, Cyno FcγRIII (cynomolgus monkey, UniProt Q8SPW2).
T6 construct: soluble receptor protein; bar 4 of each group
The assay is described as above.

The next assay addresses T7, Human FcγRIIa (131H) (human, UniProt P12318).
T7 construct: soluble receptor protein; bar 5 of each group
T7 sequence (receptor, looked up): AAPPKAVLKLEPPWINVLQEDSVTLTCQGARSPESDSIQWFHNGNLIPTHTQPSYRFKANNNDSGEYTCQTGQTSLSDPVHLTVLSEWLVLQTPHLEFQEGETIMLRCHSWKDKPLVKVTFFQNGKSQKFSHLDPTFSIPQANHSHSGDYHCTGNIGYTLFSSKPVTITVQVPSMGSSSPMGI
The assay is described as above.

The next assay addresses T8, Human FcγRIIIb (human, UniProt O75015).
T8 construct: soluble receptor protein; bar 3 of each group
The description is as above.

The next assay deals with T9, Human FcγRIIa (131R) (human, UniProt P12318).
T9 construct: soluble receptor protein; bar 6 of each group
T9 sequence (receptor, looked up): T7 sequence (receptor, looked up) with H132R
The assay is described as above.

In the next assay the target is T10, Human FcγRIIIa (158V) (human, UniProt P08637).
T10 construct: soluble receptor protein; bar 2 of each group
The description is as above.

A further assay has as its target T11, Human FcγRIIb (human, UniProt P31994).
T11 construct: soluble receptor protein; bar 7 of each group
T11 sequence (receptor, looked up): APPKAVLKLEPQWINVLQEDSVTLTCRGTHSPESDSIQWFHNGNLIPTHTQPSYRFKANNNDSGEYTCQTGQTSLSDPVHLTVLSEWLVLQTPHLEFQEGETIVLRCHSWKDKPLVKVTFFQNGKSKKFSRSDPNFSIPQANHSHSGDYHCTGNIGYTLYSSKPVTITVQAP
Described as above.

For a further assay, the target named is T12, Human FcγRIIIa (158F) (human, UniProt P08637).
T12 construct: soluble receptor protein; bar 1 of each group
The assay is described as above.

In assay [2] the target is T13, human CD36 (on HEK 293 or SCC25 cells) (human, UniProt P16671 2-472).
T13 construct: Overexpressed transiently or stably on HEK 293 cells, or stably on SCC25 cells; also called huCD36
The assay is described as follows: FACS, SCC25 cells stably expressing human CD36.
Procedure: SCC25 cells were treated with 10-fold serial dilution of each antibody (5 dilutions starting at 100 nM). After incubation with the cells, an anti-human fluorescently labelled antibody was added to the cell media, allowed to incubate further, and the unbound antibody was washed off of the cells. Subsequently, the cells were subjected to FACS analysis to determine antibody binding to the cells. The results were fitted to a sigmoidal titration curve. Using a nonlinear regression model, the EC₅₀ values for each antibody were calculated from the GeoMFI and MFI values using the log(agonist) versus response (four parameters) fitting on the data transformed according to X=Log[X] in GraphPad PRISM.

Assay [3] concerns the target T14, nonhuman primate CD36 (on HEK 293 cells) (cynomolgus monkey / rhesus macaque, UniProt P16671 2-472 (human entry)).
T14 construct: also called non-human primate CD36 (cynomolgus)
The assay is described as follows: FACS, HEK 293 cells transiently overexpressing CD36. (In general: A flow cytometer gives signals particle by particle.)

The target of assay [4] is T15, mouse CD36 (on HEK 293 cells) (mouse, UniProt Q08857 1-472).
T15 construct: also called Murine CD36
The assay is described as above.

Assay [5] addresses T13, human CD36 (on HEK 293 or SCC25 cells). In words: FACS, HEK 293 cells.

T13 sequence (P16671 2-472 limits assumed): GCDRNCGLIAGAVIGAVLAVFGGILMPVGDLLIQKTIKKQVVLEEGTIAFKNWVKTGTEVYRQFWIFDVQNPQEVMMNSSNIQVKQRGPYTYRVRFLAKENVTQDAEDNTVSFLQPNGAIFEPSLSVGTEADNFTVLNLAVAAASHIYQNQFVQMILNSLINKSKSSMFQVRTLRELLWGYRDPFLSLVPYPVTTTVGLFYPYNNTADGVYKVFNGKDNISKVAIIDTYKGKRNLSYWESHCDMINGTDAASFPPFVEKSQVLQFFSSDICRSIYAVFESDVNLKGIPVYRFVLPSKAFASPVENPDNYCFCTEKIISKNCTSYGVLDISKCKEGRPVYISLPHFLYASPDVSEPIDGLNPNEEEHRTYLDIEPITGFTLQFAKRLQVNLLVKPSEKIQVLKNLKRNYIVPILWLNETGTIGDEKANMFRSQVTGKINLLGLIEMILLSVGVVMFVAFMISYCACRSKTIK
T15 sequence (Q08857 whole entry): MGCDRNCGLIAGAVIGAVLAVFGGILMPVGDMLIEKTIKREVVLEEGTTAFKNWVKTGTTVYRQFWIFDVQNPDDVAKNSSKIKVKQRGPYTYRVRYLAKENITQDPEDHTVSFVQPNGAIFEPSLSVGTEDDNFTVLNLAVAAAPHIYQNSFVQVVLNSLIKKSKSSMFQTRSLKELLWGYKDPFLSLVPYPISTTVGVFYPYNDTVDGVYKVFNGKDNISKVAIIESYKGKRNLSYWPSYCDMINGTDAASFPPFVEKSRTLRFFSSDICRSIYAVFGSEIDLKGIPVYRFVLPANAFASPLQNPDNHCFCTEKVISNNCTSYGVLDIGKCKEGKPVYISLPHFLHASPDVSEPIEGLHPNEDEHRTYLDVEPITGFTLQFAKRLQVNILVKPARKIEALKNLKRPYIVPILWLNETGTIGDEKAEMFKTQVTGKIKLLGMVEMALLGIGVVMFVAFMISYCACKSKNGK
T1 sequence (P16671 30-439 limits assumed): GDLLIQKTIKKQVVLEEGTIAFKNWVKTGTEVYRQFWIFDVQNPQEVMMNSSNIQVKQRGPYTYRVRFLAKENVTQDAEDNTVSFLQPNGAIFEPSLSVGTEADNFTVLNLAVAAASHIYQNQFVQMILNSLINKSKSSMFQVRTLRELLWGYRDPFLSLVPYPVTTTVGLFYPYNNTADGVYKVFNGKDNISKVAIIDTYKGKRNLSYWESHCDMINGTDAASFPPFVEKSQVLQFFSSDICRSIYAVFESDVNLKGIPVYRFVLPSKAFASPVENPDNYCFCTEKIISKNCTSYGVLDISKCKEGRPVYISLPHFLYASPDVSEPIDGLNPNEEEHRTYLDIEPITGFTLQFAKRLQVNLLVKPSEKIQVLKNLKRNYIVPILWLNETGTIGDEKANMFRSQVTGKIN
T2 sequence (P02745 23-245 limits assumed, chain 1 of 3): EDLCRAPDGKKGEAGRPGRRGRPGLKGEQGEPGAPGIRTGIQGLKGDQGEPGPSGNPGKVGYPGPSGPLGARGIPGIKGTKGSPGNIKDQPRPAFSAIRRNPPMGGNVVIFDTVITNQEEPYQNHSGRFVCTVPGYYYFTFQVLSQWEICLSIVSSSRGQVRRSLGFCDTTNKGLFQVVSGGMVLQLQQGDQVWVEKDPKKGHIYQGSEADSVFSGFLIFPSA
T2 sequence (P02746 28-253 limits assumed, chain 2 of 3): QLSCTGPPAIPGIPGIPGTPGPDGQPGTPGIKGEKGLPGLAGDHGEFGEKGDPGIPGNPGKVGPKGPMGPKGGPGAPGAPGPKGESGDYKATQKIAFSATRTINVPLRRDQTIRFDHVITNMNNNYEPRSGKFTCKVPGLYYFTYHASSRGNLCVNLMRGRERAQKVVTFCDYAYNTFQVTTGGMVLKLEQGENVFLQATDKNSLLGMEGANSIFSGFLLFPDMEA
T2 sequence (P02747 29-245 limits assumed, chain 3 of 3): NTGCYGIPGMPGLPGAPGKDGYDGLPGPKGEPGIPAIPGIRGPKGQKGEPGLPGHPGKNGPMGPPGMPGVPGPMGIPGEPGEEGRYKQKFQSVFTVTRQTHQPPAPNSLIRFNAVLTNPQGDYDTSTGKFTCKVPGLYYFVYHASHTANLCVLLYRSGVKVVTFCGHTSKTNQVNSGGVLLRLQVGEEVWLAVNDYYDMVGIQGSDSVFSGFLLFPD
T10 sequence (P08637 17-208 F176V limits assumed): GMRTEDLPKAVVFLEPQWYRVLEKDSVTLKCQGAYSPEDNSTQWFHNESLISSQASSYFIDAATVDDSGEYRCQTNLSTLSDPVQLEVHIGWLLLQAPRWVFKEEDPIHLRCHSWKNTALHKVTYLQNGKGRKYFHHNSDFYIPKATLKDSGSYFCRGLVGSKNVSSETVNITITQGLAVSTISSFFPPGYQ
T14 sequence (P16671 other isoform, or with tags, fused parts or gaps limits assumed): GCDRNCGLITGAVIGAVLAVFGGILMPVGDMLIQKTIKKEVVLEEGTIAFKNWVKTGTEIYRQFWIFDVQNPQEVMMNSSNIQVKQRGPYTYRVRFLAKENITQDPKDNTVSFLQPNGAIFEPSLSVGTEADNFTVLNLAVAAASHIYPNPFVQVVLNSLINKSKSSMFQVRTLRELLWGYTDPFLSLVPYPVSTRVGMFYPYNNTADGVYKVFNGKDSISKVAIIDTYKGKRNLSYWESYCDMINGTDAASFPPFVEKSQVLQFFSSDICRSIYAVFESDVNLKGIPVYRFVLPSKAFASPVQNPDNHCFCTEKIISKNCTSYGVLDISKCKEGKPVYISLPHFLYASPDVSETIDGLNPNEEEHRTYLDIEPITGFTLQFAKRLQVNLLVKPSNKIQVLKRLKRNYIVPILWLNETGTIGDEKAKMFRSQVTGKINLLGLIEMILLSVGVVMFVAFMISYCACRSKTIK
T6 sequence (Q8SPW2 17-208 limits assumed): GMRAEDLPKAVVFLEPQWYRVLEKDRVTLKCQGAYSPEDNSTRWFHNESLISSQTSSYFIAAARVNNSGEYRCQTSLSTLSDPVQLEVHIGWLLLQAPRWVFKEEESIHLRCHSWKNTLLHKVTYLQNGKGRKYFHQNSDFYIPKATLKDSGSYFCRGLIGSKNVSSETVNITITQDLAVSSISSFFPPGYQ
T4 sequence (P12314 16-288 limits assumed): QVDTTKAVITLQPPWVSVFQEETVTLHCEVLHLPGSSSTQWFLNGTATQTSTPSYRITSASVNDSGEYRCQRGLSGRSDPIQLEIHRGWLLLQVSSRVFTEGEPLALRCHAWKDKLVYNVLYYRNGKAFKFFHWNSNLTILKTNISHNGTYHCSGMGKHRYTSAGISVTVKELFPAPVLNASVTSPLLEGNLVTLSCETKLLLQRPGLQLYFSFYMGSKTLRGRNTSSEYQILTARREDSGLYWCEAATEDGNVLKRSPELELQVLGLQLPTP
T8 sequence (O75015 17-200 limits assumed): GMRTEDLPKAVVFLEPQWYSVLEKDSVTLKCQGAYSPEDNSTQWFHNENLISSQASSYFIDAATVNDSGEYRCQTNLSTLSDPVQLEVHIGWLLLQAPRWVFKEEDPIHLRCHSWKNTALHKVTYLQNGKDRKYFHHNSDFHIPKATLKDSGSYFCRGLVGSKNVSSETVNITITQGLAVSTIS
human FcRn, sequence (P55899 24-297 limits assumed, chain 1 of 2): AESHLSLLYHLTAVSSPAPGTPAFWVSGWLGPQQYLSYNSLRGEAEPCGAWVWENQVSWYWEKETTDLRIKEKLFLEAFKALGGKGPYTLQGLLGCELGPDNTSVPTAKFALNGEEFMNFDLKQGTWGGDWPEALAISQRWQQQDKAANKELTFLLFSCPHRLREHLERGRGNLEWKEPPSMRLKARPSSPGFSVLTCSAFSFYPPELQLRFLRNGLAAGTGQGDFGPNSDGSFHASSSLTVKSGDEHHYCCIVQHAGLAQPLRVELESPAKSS
human FcRn, sequence (P61769 21-119 limits assumed, chain 2 of 2): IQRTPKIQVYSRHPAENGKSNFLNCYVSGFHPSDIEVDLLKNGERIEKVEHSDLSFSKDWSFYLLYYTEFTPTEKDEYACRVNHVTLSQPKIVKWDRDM
T12 sequence (P08637 17-208 limits assumed): as the sequence (P08637 17-208 F176V limits assumed) above, with V160F counted along it
Procedure for C1q human protein: Binding to complement C1q protein was also measured, using a standard ELISA assay in which 96-well ELISA plates were coated with the tested antibodies and C1q human protein was added (2.5-fold serial dilution starting at 250 g/mL).
Procedure for Cyno FcγRIII: (§1) The binding of the different Fc-formatted anti-CD36 antibodies to FcγRs and FcRn was measured by SPR by immobilizing the antibodies through their light chains. The setup for these assays orients the antibody such that the Fc domain is solvent-exposed, allowing quantification of the interaction with soluble receptor proteins. Antibodies with well-defined binding properties were included as positive/negative controls in all the assays.
Procedure for Cyno FcγRIIa: as §1
Procedure for Cyno FcγRIIb: as §1
Procedure for Human FcγRIIIa (158F): as §1
Procedure for Human FcγRIIIa (158V): as §1
Procedure for Human FcγRIIIb: as §1
Procedure for Human FcγRIIa (131H): as §1
Procedure for Human FcγRIIa (131R): as §1
Procedure for Human FcγRIIb: as §1
Procedure for human FcRn: as §1

B1: 1G06 (antibody, human IgG1, kappa)
heavy: QVQLKQSGADLVRPGASVKLSCKASGYTFTDYYINWVKQRPGQGLEWIARIYPGSGNTYYNEKFKGKATLTAEKSSSTAYMQLSSLTSEDSAVYFCARGIGGGFGMDYWGQGTSVTVSSASTKGPSVFPLAPSSKSTSGGTAALGCLVKDYFPEPVTVSWNSGALTSGVHTFPAVLQSSGLYSLSSVVTVPSSSLGTQTYICNVNHKPSNTKVDKKVEPKSCDKTHTCPPCPAPESTRGPSVFLFPPKPKDTLMISRTPEVTCVVVDVSHEDPEVKFNWYVDGVEVHNAKTKPREEQYNSTYRVVSVLTVLHQDWLNGKEYKCKVSNKALPAPIEKTISKAKGQPREPQVYTLPPSRDELTKNQVSLTCLVKGFYPSDIAVEWESNGQPENNYKTTPPVLDSDGSFFLYSKLTVDKSRWQQGNVFSCSVMHEALHNHYTQKSLSLSPGK
light: SIVMTQTPKFLLVSAGDRITITCKASQSVSDDVAWYQQKPGQSPKLLIYYASNRYTGVPDRFTGSGYGTDFTFTISTVQAEDLAVYFCQQDYSSPLTFGAGTKLEIKRTVAAPSVFIFPPSDEQLKSGTASVVCLLNNFYPREAKVQWKVDNALQSGNSQESVTEQDSKDSTYSLSSTLTLSKADYEKHKVYACEVTHQGLSSPVTKSFNRGEC
notes: Variable regions of 1G04 on human IgG1 with L234S, L235T, G236R (STR); also called STR; copies: 2 + 2
As usually defined, the EC50 (read off the curve) is the concentration needed to bring the measured effect to its halfway point. The term Kd denotes a measure of binding affinity in units of concentration. By EC50 is commonly meant the concentration needed to bring the measured effect to its halfway point. Turning to B1, the “EC50 (read off the curve)” value in assay [1] was roughly 0.1 nM. Besides, in the assay with human FcRn, the Kd stood at 629 nM. The binding result with C1q human protein is listed as “no binding (tested: 250 µg/mL C1q (highest point))”; in the assay with Cyno FcγRIIa, “no binding”; with Human FcγRI it was “no binding”; in the assay with Cyno FcγRIIb, “no binding”; with Cyno FcγRIII, “no binding”; with Human FcγRIIa (131H), “no binding”. Also, the binding result is given as “binds” with Human FcγRIIIb; “no binding” with Human FcγRIIa (131R); “binds” with Human FcγRIIIa (158V); “no binding” with Human FcγRIIb; “binds” in the assay with Human FcγRIIIa (158F). Moreover, in assay [2], the EC50 was determined as 0.38 nM.

B2: 20G04 (antibody, human IgG1, V domains shown)
VH: QIQLVQSGPELVKPGASVKISCETSGHTFTEYTMHWVKQSHGKSLEWIGGIYPNNGATKYNQKFKGKATLTVDKSSSTAYMELRSLTSEDSAVYYCARDRYDVWFAYWGQGTLVTVSA
VL: ETTVTQSPASLSVATGEKVTIRCITSTDIDDDMNWYQQKPGEPPKLLISEGNTLRPGVPSRFSSGGYGTDFVFTVENMLSEDVADYYCLQSDNLPLTFGAGTKLELK
notes: Chimeric: mouse variable regions on human IgG1 LALA (L234A/L235A)
For the molecule B2, the results for the EC50 in assay [3] and in assay [4] were 5.03 nM and 18.2 nM, respectively. The binding result in assay [5] is “binds”.
